Target: recombinant full-length hemagglutinin H6 (A/Taiwan/2/2013) (influenza A virus H6N1 (A/Taiwan/2/2013))
Test: BLI

B1: 3I14^D93N IgG1 (antibody, V domains shown)
VH: QVQLLESGGGVVQPGRSLRLSCAASGFTFSNYGMHWVRQAPGKGLEWVAIISFDGSKKYYANSVKGRSTISRDNSKNTLSLQMNSLGPEDTALYYCAKLPSPYYFDSRFVWVAASAFHFWGQGILVTVSS
VL: LTQPPSASGTPGQRVTISCSGSSSNIGGNTVHWFQQLPGTAPKLLIYTNSLRPSGVPDRFSGSKSGTSASLAISGLQSEDEADYYCAAWDNSLNGQVFGGGTKLTVL
B1 gave a Kd of 400 pM.
